Experimental findings from patent US20090010966A1 are described below.

The target of data set [1] is elongation factor 2 (EF2) (rabbit) (UniProt P55823). The data set can be described thus: cell-based or functional assay.
Data set [2] concerns the target elongation factor 2 (EF2) (UniProt P55823).

“control DT(ΔR), truncated DT comprising the C and I domains only (from UniProt P00588 33-414) (enzyme)” returned an inhibition of transcription/translation of T7-luc plasmid (IVTT) in data set [1] of 90%.

On to DT382 V28S, for which the Relative IVTT score (ratio (IC50 WT / IC50 mutant)) in data set [2] worked out at 3.61.
